Consider 70 sequences from the domain aggregation screens of Martell et al. (2025).
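Further: 20 min heating vs room temperature control held 20 min.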

This data set is described as follows: soluble fraction after stress (log2 fold change); higher = more stays soluble; pooled small domains, quantitative proteomics. The settings on record: stress: 75 degC.
Consider “HMSSEITYDKFIEMVEEGNVKEVTLQSDTLTIKPKHQDSAFSEKEYYTRQMESADQLTERLEGTGIEFHS”, for which the “soluble fraction (log2)” value was found to be 0.119.
The same measure for “HMSSEQRSVLFPNLAETDKVAVIEALMAAGVNARVDSASGRVTVPSGDYYNSRAILAAQGLPTS”: 0.0148; for “HMSSETTVPAVVGIKEDKARQLASEQGLRLRVKSREESADVEEGIIISQDPNSNTKVKKGDEIEVVVS”: 0.102.
With “HMSSFSESFHKALNNLDDKHKSVFSLRHFEGFSMKEIAETLNINEGTVKSRLFYATKTLAGALKEF”, the “soluble fraction (log2)” value was -3.45.
Regarding “HMSSGKTGTITLQPKQTVYGITKQYKISEADLRKLNPQLDSNLKIGDKITLPLDNIQRYSDSSSNVAQT”, the “soluble fraction (log2)” value turned out to be 0.0568.
The same measure for “HMSSGLLTVQEQRILEHLANGERNGDIAGRLHISEGTVKWHLHNMYRKLDAATRTQAVARARALRL”: 0.36; for “HMSSIGERISDVRKARGYTQDQLAERIHVSRQTISHWENERALPDFESIKQLSQVLGYDFSS”: -0.123.
Then “HMSSIHQDAKQQLHEYIRTYIQPLMRAGKQVTVWDIIGHVTIRKPKLVQKIGTQQLINMVQDLLE”, with -0.624.
As to “HMSSKSDQLYLQLRRRISAMKDGEPFPTVRQLMTEYQVSQSTVTPAINQLKEKGLIEAYVGRGSFVSKK”, the “soluble fraction (log2)” value is -0.657.
The same measure for “HMSSKTKVEDLGLSTRTLNALIGGSIKTAGGLTRKSESDLLSLDGLGEKGITEIKEALENIGLSLK”: 0.103; for “HMSSLKKISIDELSPGMYVHSIVEQKGSVKIKSQGKVLKQAVVDALRKRGVKTLLIDLSKQFNPETGEP”: -0.985; for “HMSSLTPRETEVLSRMAQGDANTSIAERLVITEKAVQKHINAIFAKLGLAEEPTSARRVLAVLAFLR”: -0.539.
Then “HMSSLTQREYEIAELVADGLSNKAIAAELSISHTTAARHVANIMNKLGFNSRSQIAAWVADRAQG”, with 0.0373; and “HMSSNLSLHKEGNKIVILGLEGKSVIEVYDLMGRLLSSQTNYNPKQEITLLQPVIIRVTDTQQTKSFKV”, with -1.5.
For “HMSSNLTVFTRNNAIIVNSDVVRKLNVFAVDGRLVRSVDLSVGENVINNISRGMYLIDKQKVVV”, the “soluble fraction (log2)” value was -2.77.
In the case of “HMSSPDMSLLYSELDVKDSGQIVTILEQRNIPYEVRNNGSQIYIPSNNVQRIRLSLAQEGLPSG”, the “soluble fraction (log2)” value was 0.111.
With “HMSSPTAKATGSSVNIRKSASTGAAVLKRVEKGTVLEAVSISDGWVKVKYSGVTGYVSADYVKVSGL”, the “soluble fraction (log2)” value is -2.19.
“HMSSQGQNTKTGTVTASALYVRSGAGTNYSQIGYLLKNTKVEIVGQTGSWYKIKFGSGTGYVSSKYIK”: the “soluble fraction (log2)” value was -2.69.
The same measure for “HMSSQLETTFATLIGKRVSIRLHDPEGGFRDILGHLESPYSLRNRHGNLIEFAHDQIFLWREVI”: -1.82.
Then “HMSSRNLIIFYDSPQAENALLATAERYGAILLHHYRNLHGIAVAIPADKDMAQAVTYFSRQPGVRQV”, with -2.56; and “HMSSSKVAISQFEELVDQGQVREVVIEGSTATGTTAAGRRFAAEIPPGGMELFLSKLDDAGTTYEYSPP”, with 0.822.
The same measure for “HMSSSYTEMQLDKLKKLLEKETLLSSEKSELKSLIHDFDKIPEVVSPLIVGEYLRLKNKYIAVINSLE”: -1.25; for “HMSSSYTEMQLERFKELLNKETLLSSEKNELKNLISDFDKISEIVSPLVVGAYLQLKNEHIETINSLG”: -0.507.
Consider “HMSSTAIQAMIRRLIDGEDPRKPLSDARLAETLKASGVPVARRTVAKYRESMSIPSSQDRLRI”, for which the “soluble fraction (log2)” value was -0.577.
The same measure for “HMSSTSTKTQNIVHIVKSGETLSAIASKYGVSVDNIKKWNNLSSDKLSIGQKLKINPTTQTSS”: 0.29; for “HMSSVEEILQTLGGRIRTQRLAQGISQQVLADRAGLSLGAVRQLEGSGQSGLDTLVRVLFVLGIVDEL”: -2.27.
The same measure for “HMSSVHTMEVKSTTQIKVLDENKNLSSYYSMKNPVSFNYRLFFLNQDELKKLQEDLKTNNDIQSIDIKYA”: -0.484; for “HMSTALTPLTTREREVLALMAEGLTNSGIAARLVLTDRTVETHVSRILHKLGLGETTTNEHRRVLAVLRYL”: -1.72.
Regarding “HMSTASPEELRQTPERRRLIEYLREHGGHGRTSEIAAALGIDDSTASRLLRRLADNGLIVRTQYGEYTLLQ”, the “soluble fraction (log2)” value is -0.184.
Then “HMSTEAVVMSSSVSVKSSPDKASTDLFVLHEGTKVRTVSELGDWREIVIADGKKGWVEARTIET”, with 0.756.
The same measure for “HMSTEPLALVGKTGIAATVLRPSGRIEVDDKYYDAVSLGAFIEKGEMVNIVKYENLQLYVAKL”: -2.18; for “HMSTFAQNLRALMEKRGVSQNELARSAGLTQSAINKILTGKTKQPGIDTTEAIARVLNVSVAQLIYT”: -1.4; for “HMSTFTPYLVKVTTSVLNIRKGAGTNYGTNGSIRDMGTYTIVAEADGQGASKWGKLKSGAGWISLDYTKK”: -2.33.
The same measure for “HMSTILERLIMLQEQSGMNQKQLQKELGLSNSAFSDWKKGKGRPSVEALVRFSEFFGVSMDWLAFG”: -2.27; for “HMSTKRQKELLEYVDRFITEHGYGPSYREIMNAIGYKSVSTVAIHIDGLIAKGYLRKRDNSARSLEVV”: -1.17; for “HMSTKYSSNIISLVKGLMEEDQYKDLMGPPLKKEIIKKVESITDTFPYKFDKDDKEFIVKKVLISLRK”: -1.77.
“HMSTLKSALDEIPGIGAARKRALLNHFGSTRVISSVGVKDLEQVEGVSKKIALLIYGYFHDK”: the “soluble fraction (log2)” value is -2.57.
Then “HMSTLSIHIPDKFAGQRLDQALAELYSQFSRSRLQQWLNDGELLVDGKSVKANKKVLGGEFIQILK”, with -1.24; and “HMSTPENLGGRNTAKARISWLENGVKQELESDFPAAEVVKLSSRFGGEVPELTVIRPSLEDIYLKMIG”, with -0.00898; and “HMSTPLVATLRKRIIDGHYPPGERLAEIPVAEAFGVSRTPVRLAFRTLEQEGLLEKAGKRGYAVRA”, with -0.164.
For the sequence “HMSTQVPDVKERSQEEARSILESAGFKVTPAVKTEDSADIAKDMVTKTDPAAGQSVPKGTTITIYVSS”, the “soluble fraction (log2)” value worked out at 0.126.
For “HMSTRLIGEIGVVTKDLGAGLKENGSIQIGREEWPAETKDMEHIPMGTRVKVIHIEGTRLVVEA”, the “soluble fraction (log2)” value was -0.561.
As for “HMSTSRAEIIAFLKSNPSSEYKHELETKLDEMDWAEAVKGNSEESFLAYKQRQPNGTHNGEADEKLKVLLV”, the “soluble fraction (log2)” value was -0.0423.
Then “HMSTVISPLPGNIIKVLVPEGKSVKRGDTILTIESMKMENSIKAAYDGVVKKIYVQQAQIVMQGDPLFDL”, with -2.86; and “HMSVALSENIKTRRKALKMSQEYVAEQLDISRQAVAKWEAGKSEPTTENLVKLAALFEMSVSELVE”, with -0.969.
Then “HMSVDDVALRLEFGPSDAEALAFVHRHGAILSETTDRDTGVVSVHVRLSEADAGRFNQRYGV”, with -0.0968; and “HMSVDDYLKFSGSGTYWNTQDRGKTYLVNGQQRPLRDKEYLPDVMHRHVIDFITKHRDRPFYIYYSM”, with 0.173.
With “HMSVDVEGNQRIPTEQVLSELRDVGVSFGKRVSGLNADTIRNQMIINNDEIAWLGVNVRGSRVYVEITERI”, the “soluble fraction (log2)” value is 0.125.
With “HMSVERIEPPLPLIDTLLALRDALERPLSREENAFLSRRFAGGATRAQIDALAAQFRGAAAAESKV”, the “soluble fraction (log2)” value worked out at 0.0516.
For “HMSVETSDLLPLIEQVLSLNPDKVKEYQNGKKGLLGFFMGQIKQTAGVAIDVGTLKPLLEDALHKDL”, the “soluble fraction (log2)” value is -0.861.
The same measure for “HMSVEYRKTLSDGNEYQIVKEKNGYVIKKSLNEGLDYLEPMKNRKYYSSYSQAFKRLNLIAKEVNINEGYD”: -0.511.
Then “HMSVFGMEIGKTTEAEAGRMYRLNKEQLNPYSGGYQYSVNPKAIDFSGLEQVTLIFDEKKVLVYVQAV”, with 0.144; and “HMSVIETLLSDREREVLTHLVNGYDAKRIAEITGISTLTVRKHIANIYTKLHVNSKAQVISMAHKNKWF”, with -2.7; and “HMSVIKERLTEFLTYKGIGQIKFAEAAGLSRGFVNVLGDGISSKSLNKISQAFPELNTLWLTTGEGEML”, with -1.72.
Regarding “HMSVKTIRKTEFAKRLYSLMLEKNWNQSDLARASGMGRDSVSQYIRANNTPSPQNLKKLAEALGVEPVELY”, the “soluble fraction (log2)” value is -2.05.
For the sequence “HMSVKYLQIYHAIREKILSNEYAINQQLPDEITLTKEFNSSRMTVKKALDLLVSEGLIFRKRGQGTFVLSR”, the “soluble fraction (log2)” value was -3.67.
For the sequence “HMSVLDEVRKLSFHQRNAVFLFYFEGYSMKEIAQIFHVKEGTVSSWLTRARKQLRKQMEEEVLYDESLP”, the “soluble fraction (log2)” value was -0.473.
For “HMSVLLDDLSPREREILQLVVEGHSSTKIAGMLGLASATVDTYRSRLMAKLHIDNLPDLVRFAIRHGLIS”, the “soluble fraction (log2)” value is -2.46.
The same measure for “HMSVLLKEEGSLQLARHGAAYFIIYSAQEHPNQRRHLKISEEESNRIMEGTPIEEIFLAYSG”: -1.67; for “HMSVLQGLIESFKAGDRNLYEVAERLNVTEPFLAEALKDYRARFPKGVQVDNFWISFRPYLTIAEV”: -1.17.
Turning to “HMSVNEKVRLFRELNQWSQEEMAERMNMSVAGYAKIERGETNISLHKLKQIASVLQIDLLDLVS”, the “soluble fraction (log2)” value was -2.1.
As for “HMSVPEAAERAIDVAQMRRALGELSPEQQRVLELAYFGGLTRQEIARATGTPLGTVHTRARLGLQNLRARL”, the “soluble fraction (log2)” value was -0.306.
Then “HMSVPRVWTDIQGRRVKGDFEGLRGDLVVLRVGGKSYAFPLVRLIASDQAYARSLVAGNPSK”, with -1.5.
As to “HMSVPSLVGKTDSEAQSAIKSAGLKVGTVTYQYSDETEKGYVVSQSPYSGNKVNAGSTVNIVVSKGK”, the “soluble fraction (log2)” value was 0.0467.
On to “HMSVPSVAAVREQTGLSQVKFASLLGVSVRTLQEWEQGRRAPSGAARTLLMVAAKNPQALLEV”, for which the “soluble fraction (log2)” value is -1.31.
The same measure for “HMSVSVEEDADGRVWVYYQDQKMDITDLFDENGVYGFNLEKGDRTVYVEVTKNADGTYSFTQTD”: 0.427.
In the case of “HMSVTIENQINTYFQTRDKISRDELVALIKKDFANWTDNTINIYVSSLQKRGIIHSLSRGMYALGN”, the “soluble fraction (log2)” value was -4.25.
On to “HMSVTYRLLITSSPGQAEVFLDGKRVGITPFSARLAAGWYQVRVSKEGYNLWEQHVQLREDQRLTATLT”, for which the “soluble fraction (log2)” value is -3.17.
Then “HMSWAAQVVDKMTNDQLIKSLNEIVNTGKQLGLDITVEQNGDKNFIMTVKDSKGNVQLVTPIG”, with 0.108; and “HMSWEQELIEKANEIIDLYPEKRSALGPLLYLAQERDGYISDESIVEISNLVGITEVQVKSVASFYSMYK”, with -3.62.
